Test results as given in patent publication US9073982B2, “Targets for regulation of angiogenesis” (The University of North Carolina at Chapel Hill, priority 2008, dated 2015).
Entries after “also recorded” stand apart in the source; their conditions may differ.

Tests used:
[1] = test system: mouse endothelial cells (MEC); assay: Scratch wound assay on mouse endothelial cells; assay type: cell-based; conditions: SFRP2 0.7 pM-700 pM, 16 to 32 hours
Method: The migration properties of SFRP2 on mouse endothelial cells (MEC) cells were evaluated using a scratch wound assay. Mouse endothelial cells were plated at 10,000 cells/well into a 96 well plate and allowed to become confluent in DMEM with 10% FBS. The cells were quiesced in DMEM without serum for 18 hours. The wound was formed using a 1 ml pipette tip and a 0.7 pM-700 pM dose curve of mouse recombinant SFRP2 (US Biologicals, Swampscott) was added to the cells. Each concentration was performed in triplicate and the experiment was repeated three times with similar results. Migration was measured from 16 to 32 hours. Migration distance was measured at each time point. Statistical differences between SFRP2 and control were evaluated with an unpaired two-tailed Student's t-test, with p<0.05 being significant.

NFATc3 = assay: Western blot for nuclear NFATc3 in MEC cells; assay type: cell-based, mouse; conditions: SFRP2 700 pM
Method: To evaluate the role of the non-canonical Wnt/Ca^++ pathway in SFRP2 induced angiogenesis, nuclear dephosphorylated NFATc3 protein levels were compared in control and SFRP2-treated endothelial cells. MEC cells were plated in 12-well plates and allowed to attach overnight. The next day, the media was changed and added to the wells with and without SFRP2 (700 pM). Cells were incubated for 1, 2, 4, 8 and 16 hours, and the nuclear proteins were extracted by using NE-PER™ nuclear and cytoplasmic extraction reagent from PIERCE (Pierce Biotechnology) as described in the manufacturer's manual. The Western blot analysis was performed using standard methods, with primary antibody to the dephosphorylated (active) β-catenin antibody or NFATc3.

[2] = test system: mouse endothelial cells (MEC); assay: Endothelial cell tube formation assay, MEC cells; assay type: cell-based; conditions: SFRP2 concentration range, 8 hours
Method: The tube formation properties of SFRP2 on mouse endothelial cells (MEC) cells were evaluated using an endothelial cell tube formation assay. ECMATRIX (Chemicon) was thawed, diluted and solidified in a 96 well plate according to the manufacturer's instructions. 1×10^4 cells/well in 150 μl of DMEM (celigro) with 10% FBS (HyClone) and a concentration range (7-7000 pM) of SFRP2 (US Biologicals) were seeded onto the matrix and returned to 37° C., 5% CO2 for 8 hours. Images were acquired using the Nikon Eclipse TS100 microscope at 4× magnification with a Nikon CoolPix 995 digital camera. Results were quantified by counting the number of branch points.
To evaluate whether tacrolimus inhibits SFRP2 induced tube formation, MEC cells were treated as above with SFRP2 7 nM with and without tacrolimus 100 uM for 8 hours and branch points were determined as described above. To evaluate whether tacrolimus reversed established tubes, cells were incubated with SFRP2 7 nM for 8 hours and then BSA or tacrolimus 100 μM was added to SFRP2 treated cells for an additional 4 hours, and then the number of branch points were counted. […] Tacrolimus was not cytotoxic to MEC cells, as only 5% of tacrolimus-treated cells took up trypan blue dye (data not shown).
The tube formation properties of SFRP2 on MEC cells were evaluated using an endothelial cell tube formation assay. ECMATRIX (Chemicon) was thawed, diluted and solidified in a 96 well plate according to the manufactures instructions. 1×10^4 cells/well in 150 μl of DMEM (cellgro) with 10% FBS (HyClone) and a concentration range (3-3000 pM) of SFRP2 (US Biologicals) were seeded onto the matrix and returned to 37° C., 5% CO2 for 8 hours. Images were acquired using the Nikon Eclipse TS100 microscope at 4× magnification with a Nikon CoolPix 995 digital camera. Results were quantified by counting the number of branch point. To evaluate whether tacrolimus inhibits SFRP2 induced tube formation, MEC cells were treated as above with SFRP2 30 nM with and without tacrolimus (1 μM-100 uM) for 8 hours and branch points were determined as described above. To evaluate whether inhibitors of SFRP2-mediated angiogenesis would inhibit the growth of SVR tumor cells, SVR cells were treated with tacrolimus (1 μM-100 μM) or with a rabbit polyclonal antibody to SFRP-2 (H-140) (Santa Cruz Biotechnology, Santa Cruz, Calif., catalogue 4 sc-13940) in the tube formation assay.

β-catenin = assay: Western blot for nuclear and cytoplasmic β-catenin in endothelial cells; assay type: cell-based, mouse; conditions: SFRP2 700 pM
Method: SFRP2 has been described as both a Wnt antagonist and agonist, but its effects on Wnt signaling in endothelial cells have not been elucidated. To determine if SFRP2 mediates canonical Wnt signaling in endothelial cells, cytoplasmic and nuclear β-catenin levels were measured in SFRP2-treated endothelial cells. Mouse endothelial cells were plated in 12-well plates and allowed to attach overnight. The next day, the media was changed and added to the wells with and without SFRP2 (700 pM). Cells were incubated for 16 hours, and the nuclear and cytoplasmic proteins were extracted by using NE-PER™ nuclear and cytoplasmic extraction reagent from PIERCE (Pierce Biotechnology) as described in the manufacturer's manual. Western blot analysis was performed using standard methods, with primary antibody to the dephosphorylated (active) β-catenin antibody (Santa Cruz, Clone BDI480, catalog # sc-59893).
To evaluate the role of the non-canonical Wnt/Ca^++ pathway in SFRP2 induced angiogenesis, nuclear dephosphorylated NFATc3 protein levels were compared in control and SFRP2-treated endothelial cells. MEC cells were plated in 12-well plates and allowed to attach overnight. The next day, the media was changed and added to the wells with and without SFRP2 (700 pM). […]

[3] = test system: chick chorioallantoic membrane; assay: Chick chorioallantoic membrane (CAM) assay; assay type: in vivo, chicken; conditions: 100 ng per disk, evaluated day 3 after disk placement
Method: On day 4, the eggs were cracked into sterile Petri dishes and incubated at 99° F. in 3% CO2, 65% humidity. For application of drug onto the CAM, Whatman grade 1 filter paper was cut into circles with a 6 mm diameter paper punch and autoclaved. To decrease inflammatory effects of the disk, the discs were soaked in 1 ml of 3.0 mg/ml cortisone acetate in absolute ETOH and air dried for 60 min in a laminar flow hood. On day 8, 5 disks per egg were placed on the outer third of the CAM, 2-3 mm from a vessel. Control PBS 7 μl was added to the discs for the control CAMs, and SFRP2 100 ng/7 μl PBS was added to the disks for the treated CAMs (n=5 control disks and 5 SFRP2-treated disks). The CAMs were evaluated under a stereomicroscope on day 3 after disk placement. Pictures were taken with a Wild M-4 70 Macrosystem, and angiogenesis was quantified using Metamorph Software with an angiogenesis module.
Fertilized chickens eggs (NC State University Chicken Research Faint) were incubated at 100.4° F. in an egg turner (Model#1588 Genesis Hova-Bator, GQF Mfg. Co., Inc.) for 3 days. […] CAMs were evaluated under a stereomicroscope on day 3 after disk placement. Pictures were taken with a Wild M-4 70 Macrosystem and angiogenesis was quantified using Metamorph Software with an angiogenesis module.

B1: SFRP2: mouse recombinant SFRP2 (US Biologicals), secreted frizzled-related protein 2 (protein)
chain: LFLFGQPDFSYKRSNCKPIPANLQLCHGIEYQNMRLPNLLGHETMKEVLEQAGAWIPLVMKQCHPDTKKFLCSLFAPVCLDDLDETIQPCHSLCVQVKDRCAPVMSAFGFPWPDMLECDRFPQDNDLCIPLASSDHLLPATEEAPKVCEACKTKNEDDNDIMETLCKNDFALKIKVKEITYINRDTKIILETKSKTIYKLNGVSERDLKKSVLWLKDSLQCTCEEMNDINAPYLVMGQKQGGELVITSVKRWQKGQREFKRISRSIRKLQC
endothelial cell migration [1]: increases endothelial cell migration | nuclear NFATc3 level (NFATc3): increased at 30 minutes in the nuclear fraction | endothelial tube formation (branch points) [2]: induced by SFRP2 in a concentration-dependent manner; also recorded: induces endothelial tube formation at 8 hours in a concentration-dependent manner | nuclear (and cytoplasmic) β-catenin level (β-catenin): no change in nuclear β-catenin; also recorded: no change in cytoplasmic or nuclear β-catenin levels | angiogenesis on the CAM (branch points, segments, tube area, tube length) [3]: induced angiogenesis on the CAM; also recorded: induces angiogenesis on the chorioallantoic membrane
